Blank lines part the entries; values can stand above or below the binder they belong to. Where no end group is shown, it is not given here. The star is where a group is joined. TAMRA = 5-carboxytetramethylrhodamine, CN(C)c1ccc2c(-c3ccc(C(=O)*)cc3C(=O)[O-])c3ccc(=[N+](C)C)cc-3oc2c1
What was measured:
[1] = molecular target: T1, A1 protein (mouse, residues 1-152, P104K C113S, used as wild type) (mouse); experiment: stopped-flow fluorescence kinetics + other: fluorescence dissociation kinetics with competitor; Kd calculated as the ratio koff/kon of the kinetic rate constants; 25 °C; 50 mM sodium phosphate, 0.05% (v/v) Tween 20, pH 7.0
T1 sequence (Q07440 1-152 with P104K C113S, looked up): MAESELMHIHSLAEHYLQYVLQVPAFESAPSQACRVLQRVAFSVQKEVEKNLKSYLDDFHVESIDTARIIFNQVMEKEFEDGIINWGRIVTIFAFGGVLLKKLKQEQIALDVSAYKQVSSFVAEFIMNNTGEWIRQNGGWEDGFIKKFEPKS

[2] = molecular target: T1, A1 protein (mouse, residues 1-152, P104K C113S, used as wild type) (mouse); experiment: stopped-flow fluorescence kinetics; association; TAMRA-labelled peptide with folded partner at least 10-fold higher (pseudo-first-order); kon from the gradient of kobs versus partner concentration; 25 °C; 50 mM sodium phosphate, 0.05% (v/v) Tween 20, pH 7.0
[3] = molecular target: T1, A1 protein (mouse, residues 1-152, P104K C113S, used as wild type) (mouse); experiment: fluorescence dissociation kinetics with competitor; dissociation; preformed complex of TAMRA-labelled peptide and partner protein mixed with excess unlabeled PUMA peptide as competitor; stopped-flow or Cary Eclipse spectrophotometer; 25 °C; 50 mM sodium phosphate, 0.05% (v/v) Tween 20, pH …
[4] = molecular target: T2, MCL-1 (mouse, residues 152-308) (mouse); experiment: stopped-flow fluorescence kinetics + other: fluorescence dissociation kinetics with competitor; Kd calculated as the ratio koff/kon of the kinetic rate constants; 25 °C; 50 mM sodium phosphate, 0.05% (v/v) Tween 20, pH 7.0; conditions: both partners purified
T2 construct: remnant of thrombin cleavage at the N-terminus of MCL-1; MCL-1, mouse, residues 152-308, UniProt P97287; source: E. coli C41 pLysS, purified (Ni2+ agarose, thrombin cleavage, ion exchange, Superdex G75 gel filtration); not shown: His6, N-terminal, cleaved
T2 chain: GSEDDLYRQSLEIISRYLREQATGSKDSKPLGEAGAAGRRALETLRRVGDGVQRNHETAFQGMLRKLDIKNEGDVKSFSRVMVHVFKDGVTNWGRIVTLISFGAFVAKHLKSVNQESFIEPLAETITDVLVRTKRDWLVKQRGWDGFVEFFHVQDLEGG

[5] = molecular target: T2, MCL-1 (mouse, residues 152-308); experiment: stopped-flow fluorescence kinetics; association; TAMRA-labelled peptide with folded partner at least 10-fold higher (pseudo-first-order); kon from the gradient of kobs versus partner concentration; 25 °C; 50 mM sodium phosphate, 0.05% (v/v) Tween 20, pH 7.0; conditions: both partners purified
Summary of the method: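 The association rate constant was measured by stopped-flow fluorescence of TAMRA-labelled peptide mixed with mouse MCL-1 (residues 152–308), with the partner at least 10-fold in excess. Excitation was at 555 nm, emission above 570 nm, 25 °C, in 50 mM sodium phosphate, 0.05% (v/v) Tween 20, pH 7.0. At least 15 traces were averaged, data before the 1 ms deadtime removed, and single-exponential fits gave kobs. kon is the slope of kobs versus partner concentration.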

[6] = molecular target: T2, MCL-1 (mouse, residues 152-308); experiment: fluorescence dissociation kinetics with competitor; dissociation; preformed complex of TAMRA-labelled peptide and partner protein mixed with excess unlabeled PUMA peptide as competitor; stopped-flow or Cary Eclipse spectrophotometer; 25 °C; 50 mM sodium phosphate, 0.05% (v/v) Tween 20, pH 7.0; conditions: both partners purified
Summary of the method: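 The dissociation rate constant (koff) was found by displacing TAMRA-labelled peptide from its preformed complex with mouse MCL-1 (residues 152–308) using a range of unlabelled competitor peptide concentrations. Experiments were run at 25 °C in 50 mM sodium phosphate, 0.05% (v/v) Tween 20, pH 7.0, on a stopped-flow instrument when kobs was above 0.03 s^−1 and on a Cary Eclipse when kobs was below 0.03 s^−1. Each fluorescence trace was fit to a single exponential, and once competitor was in sufficient excess, the kobs values that no longer depended on concentration were averaged to give koff.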

Kd [1]: 0.475 nM
kon [2]: 4.27e+06 M⁻¹ s⁻¹
koff [3]: 0.00203 s⁻¹
B1: PUMA W133F peptide (on the M144A wild type), TAMRA-labelled (peptide)
chain: {TAMRA}-RVEEEEFAREIGAQLRRAADDLNAQYERRRQEEQH

Kd [1]: 0.33 nM
kon [2]: 3.26e+06 M⁻¹ s⁻¹
koff [3]: 0.00108 s⁻¹
B2: PUMA A139G peptide (on the M144A wild type), TAMRA-labelled (peptide)
chain: {TAMRA}-RVEEEEWAREIGGQLRRAADDLNAQYERRRQEEQH

Kd [1]: 0.111 nM
kon [2]: 4.86e+06 M⁻¹ s⁻¹
koff [3]: 0.00054 s⁻¹
B3: PUMA R154A peptide (on the M144A wild type), TAMRA-labelled (peptide)
chain: {TAMRA}-RVEEEEWAREIGAQLRRAADDLNAQYEARRQEEQH

Kd [1]: 1.72 nM
kon [2]: 3.03e+06 M⁻¹ s⁻¹
koff [3]: 0.0052 s⁻¹
B4: PUMA R143G peptide (on the M144A wild type), TAMRA-labelled (peptide)
chain: {TAMRA}-RVEEEEWAREIGAQLRGAADDLNAQYERRRQEEQH

Kd [1]: 3.7 nM
kon [2]: 1.64e+06 M⁻¹ s⁻¹
koff [3]: 0.006 s⁻¹
B5: PUMA I137A peptide (on the M144A wild type), TAMRA-labelled (peptide)
chain: {TAMRA}-RVEEEEWAREAGAQLRRAADDLNAQYERRRQEEQH

Kd [1]: 0.051 nM
kon [2]: 9.4e+06 M⁻¹ s⁻¹
koff [3]: 0.00048 s⁻¹
B6: PUMA D147A peptide (on the M144A wild type), TAMRA-labelled (peptide)
chain: {TAMRA}-RVEEEEWAREIGAQLRRAADALNAQYERRRQEEQH

Kd [1]: 0.288 nM
kon [2]: 6.76e+06 M⁻¹ s⁻¹
koff [3]: 0.00195 s⁻¹
B7: PUMA D147G peptide (on the M144A wild type), TAMRA-labelled (peptide)
chain: {TAMRA}-RVEEEEWAREIGAQLRRAADGLNAQYERRRQEEQH

Kd [1]: 0.102 nM
kon [2]: 8.4e+06 M⁻¹ s⁻¹
koff [3]: 0.00086 s⁻¹
B8: PUMA E132G peptide (on the M144A wild type), TAMRA-labelled (peptide)
chain: {TAMRA}-RVEEEGWAREIGAQLRRAADDLNAQYERRRQEEQH

Kd [1]: 0.24 nM
kon [2]: 3.67e+06 M⁻¹ s⁻¹
koff [3]: 0.00088 s⁻¹
B9: PUMA R143A peptide (on the M144A wild type), TAMRA-labelled (peptide)
chain: {TAMRA}-RVEEEEWAREIGAQLRAAADDLNAQYERRRQEEQH

Kd [1]: 0.088 nM
kon [2]: 8.8e+06 M⁻¹ s⁻¹
koff [3]: 0.00077 s⁻¹
B10: PUMA E132A peptide (on the M144A wild type), TAMRA-labelled (peptide)
chain: {TAMRA}-RVEEEAWAREIGAQLRRAADDLNAQYERRRQEEQH

Kd [1]: 0.046 nM
kon [2]: 1.04e+07 M⁻¹ s⁻¹
koff [3]: 0.00048 s⁻¹
B11: PUMA E136A peptide (on the M144A wild type), TAMRA-labelled (peptide)
chain: {TAMRA}-RVEEEEWARAIGAQLRRAADDLNAQYERRRQEEQH

Kd [1]: 0.092 nM
kon [2]: 4.79e+06 M⁻¹ s⁻¹
koff [3]: 0.00044 s⁻¹
B12: PUMA R154G peptide (on the M144A wild type), TAMRA-labelled (peptide)
chain: {TAMRA}-RVEEEEWAREIGAQLRRAADDLNAQYEGRRQEEQH

Kd [1]: 0.49 nM
kon [2]: 5.1e+06 M⁻¹ s⁻¹
koff [3]: 0.00251 s⁻¹
B13: PUMA Y152A peptide (on the M144A wild type), TAMRA-labelled (peptide)
chain: {TAMRA}-RVEEEEWAREIGAQLRRAADDLNAQAERRRQEEQH

Kd [1]: 0.29 nM
kon [2]: 8.2e+06 M⁻¹ s⁻¹
koff [3]: 0.00238 s⁻¹
B14: PUMA E136G peptide (on the M144A wild type), TAMRA-labelled (peptide)
chain: {TAMRA}-RVEEEEWARGIGAQLRRAADDLNAQYERRRQEEQH

Kd [1]: 0.019 nM
Kd [4]: 0.33 nM
kon [2]: 8.2e+06 M⁻¹ s⁻¹
kon [5]: 8.9e+06 M⁻¹ s⁻¹
koff [3]: 0.000155 s⁻¹
koff [6]: 0.003 s⁻¹
B15: BID peptide (mouse, residues 76-110), TAMRA-labelled (peptide)
chain: {TAMRA}-SESQEEIIHNIARHLAQIGDEMDHNIQPTLVRQLA
notes: BID, mouse, residues 76-110, UniProt P70444; also called WT; source: synthetic peptide (Biomatik)

Kd [1]: 0.44 nM
Kd [4]: 96 nM
kon [2]: 5.6e+06 M⁻¹ s⁻¹
kon [5]: 4.5e+06 M⁻¹ s⁻¹
koff [3]: 0.0025 s⁻¹
koff [6]: 0.43 s⁻¹
B16: BID I93A peptide, TAMRA-labelled (peptide, UniProt P70444 76-110, looked up)
chain: {TAMRA}-SESQEEIIHNIARHLAQAGDEMDHNIQPTLVRQLA
notes: BID, mouse, residues 76-110, UniProt P70444; source: synthetic peptide (Biomatik)

Kd [1]: 0.015 nM
Kd [4]: 0.38 nM
kon [2]: 1e+07 M⁻¹ s⁻¹
kon [5]: 9.9e+06 M⁻¹ s⁻¹
koff [3]: 0.000146 s⁻¹
koff [6]: 0.0038 s⁻¹
B17: BID E96A peptide, TAMRA-labelled (peptide, UniProt P70444 76-110, looked up)
chain: {TAMRA}-SESQEEIIHNIARHLAQIGDAMDHNIQPTLVRQLA
notes: as for B16

Kd [1]: 0.6 nM
Kd [4]: 1.8 nM
kon [2]: 4.9e+06 M⁻¹ s⁻¹
kon [5]: 8.3e+06 M⁻¹ s⁻¹
koff [3]: 0.00303 s⁻¹
koff [6]: 0.015 s⁻¹
B18: BID R88G peptide, TAMRA-labelled (peptide, UniProt P70444 76-110, looked up)
chain: {TAMRA}-SESQEEIIHNIAGHLAQIGDEMDHNIQPTLVRQLA
notes: as for B16

Kd [4]: 0.65 nM
kon [5]: 9.5e+06 M⁻¹ s⁻¹
koff [6]: 0.0062 s⁻¹
B19: BID I82A peptide, TAMRA-labelled (peptide, UniProt P70444 76-110, looked up)
chain: {TAMRA}-SESQEEAIHNIARHLAQIGDEMDHNIQPTLVRQLA
notes: as for B16

Kd [4]: 0.4 nM
kon [5]: 9e+06 M⁻¹ s⁻¹
koff [6]: 0.004 s⁻¹
B20: BID H99G peptide, TAMRA-labelled (peptide, UniProt P70444 76-110, looked up)
chain: {TAMRA}-SESQEEIIHNIARHLAQIGDEMDGNIQPTLVRQLA
notes: as for B16

Kd [1]: 0.16 nM
Kd [4]: 0.6 nM
kon [2]: 5.3e+06 M⁻¹ s⁻¹
kon [5]: 1e+07 M⁻¹ s⁻¹
koff [3]: 0.00088 s⁻¹
koff [6]: 0.0063 s⁻¹
B21: BID R88A peptide, TAMRA-labelled (peptide, UniProt P70444 76-110, looked up)
chain: {TAMRA}-SESQEEIIHNIAAHLAQIGDEMDHNIQPTLVRQLA
notes: as for B16

Kd [1]: 7.6 nM
Kd [4]: 35 nM
kon [2]: 2.9e+06 M⁻¹ s⁻¹
kon [5]: 4e+06 M⁻¹ s⁻¹
koff [3]: 0.022 s⁻¹
koff [6]: 0.14 s⁻¹
B22: BID I86A peptide, TAMRA-labelled (peptide, UniProt P70444 76-110, looked up)
chain: {TAMRA}-SESQEEIIHNAARHLAQIGDEMDHNIQPTLVRQLA
notes: as for B16

Kd [1]: 50 nM
Kd [4]: 390 nM
kon [2]: 2.2e+06 M⁻¹ s⁻¹
kon [5]: 3.5e+06 M⁻¹ s⁻¹
koff [3]: 0.11 s⁻¹
koff [6]: 1.36 s⁻¹
B23: BID I86A-M97A peptide, TAMRA-labelled (peptide, UniProt P70444 76-110, looked up)
chain: {TAMRA}-SESQEEIIHNAARHLAQIGDEADHNIQPTLVRQLA
notes: as for B16

Kd [1]: 0.19 nM
Kd [4]: 3.8 nM
kon [2]: 8.1e+06 M⁻¹ s⁻¹
kon [5]: 7.8e+06 M⁻¹ s⁻¹
koff [3]: 0.0015 s⁻¹
koff [6]: 0.03 s⁻¹
B24: BID M97A peptide, TAMRA-labelled (peptide, UniProt P70444 76-110, looked up)
chain: {TAMRA}-SESQEEIIHNIARHLAQIGDEADHNIQPTLVRQLA
notes: as for B16

Kd [1]: 0.098 nM
Kd [4]: 0.9 nM
kon [2]: 7.8e+06 M⁻¹ s⁻¹
kon [5]: 1.09e+07 M⁻¹ s⁻¹
koff [3]: 0.00077 s⁻¹
koff [6]: 0.01 s⁻¹
B25: BID E96G peptide, TAMRA-labelled (peptide, UniProt P70444 76-110, looked up)
chain: {TAMRA}-SESQEEIIHNIARHLAQIGDGMDHNIQPTLVRQLA
notes: as for B16

Kd [4]: 0.12 nM
kon [5]: 9.2e+06 M⁻¹ s⁻¹
koff [6]: 0.001 s⁻¹
B26: BID H99A peptide, TAMRA-labelled (peptide, UniProt P70444 76-110, looked up)
chain: {TAMRA}-SESQEEIIHNIARHLAQIGDEMDANIQPTLVRQLA
notes: as for B16

Kd [1]: 0.085 nM
kon [2]: 5.9e+06 M⁻¹ s⁻¹
koff [3]: 0.0005 s⁻¹
B27: PUMA peptide (mouse, residues 127-161, M144A, used as wild type), TAMRA-labelled (peptide)
chain: {TAMRA}-RVEEEEWAREIGAQLRRAADDLNAQYERRRQEEQH

Kd [1]: 0.444 nM
kon [2]: 4.84e+06 M⁻¹ s⁻¹
koff [3]: 0.00215 s⁻¹
B28: PUMA A150G peptide (on the M144A wild type), TAMRA-labelled (peptide)
chain: {TAMRA}-RVEEEEWAREIGAQLRRAADDLNGQYERRRQEEQH

From article PMC6016464, “Folding and binding pathways of BH3-only proteins are encoded within their intrinsically disordered sequence, not templated by partner proteins” (The Journal of Biological Chemistry, 2018)
